In patent US5750335:

Target: T1, MutS (Salmonella typhimurium) (UniProt P0A1Y0)
T1 sequence: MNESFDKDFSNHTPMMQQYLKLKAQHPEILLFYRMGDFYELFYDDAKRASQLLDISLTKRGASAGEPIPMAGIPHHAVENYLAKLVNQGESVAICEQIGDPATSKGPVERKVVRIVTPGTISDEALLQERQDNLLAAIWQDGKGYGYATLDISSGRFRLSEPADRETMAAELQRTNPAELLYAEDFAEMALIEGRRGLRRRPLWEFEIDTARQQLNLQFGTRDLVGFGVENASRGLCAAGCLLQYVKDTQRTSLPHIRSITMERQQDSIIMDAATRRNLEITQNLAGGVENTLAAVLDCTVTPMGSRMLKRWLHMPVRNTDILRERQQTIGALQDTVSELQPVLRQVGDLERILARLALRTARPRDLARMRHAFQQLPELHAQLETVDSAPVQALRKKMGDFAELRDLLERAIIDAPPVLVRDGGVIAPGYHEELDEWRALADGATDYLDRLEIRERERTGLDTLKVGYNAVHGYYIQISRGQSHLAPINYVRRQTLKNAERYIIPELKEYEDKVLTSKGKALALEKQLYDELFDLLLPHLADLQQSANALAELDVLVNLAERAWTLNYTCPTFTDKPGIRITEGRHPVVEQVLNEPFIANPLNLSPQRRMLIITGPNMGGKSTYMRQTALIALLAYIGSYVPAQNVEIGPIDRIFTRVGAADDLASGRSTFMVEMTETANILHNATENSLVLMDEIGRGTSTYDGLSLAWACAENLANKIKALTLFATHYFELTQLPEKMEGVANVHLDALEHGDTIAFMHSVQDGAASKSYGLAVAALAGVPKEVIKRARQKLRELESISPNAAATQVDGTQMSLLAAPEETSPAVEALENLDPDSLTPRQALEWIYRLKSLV
Assay: pulldown
Conditions: on ice

| Substance | binding signal (fold over homoduplex) (immunoprecipitation with anti-MutS, 1 ug lambda competitor DNA) | binding signal (fold (reference)) (homoduplex control precipitated 9.6 fold less, competitor DNA) |
| --- | --- | --- |
| 1 KB AvaII-BglII M13mp8 C-A heteroduplex | 9.6 |  |
| 1 KB AvaII-BglII M13mp8 homoduplex |  | 1 |
